{"source": "the supplement of paper PMC10567573", "parents": {"B1": {"name": "PPEF2 (parent)", "chain": "AFKAAALIQRWYRRYVARLEMRRR"}}}
{"variants_of": "B1", "experiment": "protein stability index of a GFP-peptide fusion (GPS, HEK-293T) (PSI 1-6); higher = more stable", "conditions": "c terminus: a fixed tail appended"}
{"variant": "AFKAAALIQRWYRMYVARLEMRRR", "note": "[R14M]", "protein stability index": 2.2}
{"variant": "AFKAAALIQRWYRNYVARLEMRRR", "note": "[R14N]", "protein stability index": 2.83}
{"variant": "AFKAAALIQRWYRPYVARLEMRRR", "note": "[R14P]", "protein stability index": 1.59}
{"variant": "AFKAAALIQRWYRQYVARLEMRRR", "note": "[R14Q]", "protein stability index": 2.74}
{"variant": "AFKAAALIQRWYRTYVARLEMRRR", "note": "[R14T]", "protein stability index": 2.49}
{"variant": "AFKAAALIQRWYRVYVARLEMRRR", "note": "[R14V]", "protein stability index": 1.07}
{"variant": "AFKAAALIQRWYRYYVARLEMRRR", "note": "[R14Y]", "protein stability index": 1.79}
{"variant": "AFKAAALIQRWYRRAVARLEMRRR", "note": "[Y15A]", "protein stability index": 4.61}
{"variant": "AFKAAALIQRWYRRCVARLEMRRR", "note": "[Y15C]", "protein stability index": 4.6}
{"variant": "AFKAAALIQRWYRRDVARLEMRRR", "note": "[Y15D]", "protein stability index": 1.87}
{"variant": "AFKAAALIQRWYRREVARLEMRRR", "note": "[Y15E]", "protein stability index": 3.89}
{"variant": "AFKAAALIQRWYRRFVARLEMRRR", "note": "[Y15F]", "protein stability index": 3.39}
{"variant": "AFKAAALIQRWYRRGVARLEMRRR", "note": "[Y15G]", "protein stability index": 1.93}
{"variant": "AFKAAALIQRWYRRHVARLEMRRR", "note": "[Y15H]", "protein stability index": 4.56}
{"variant": "AFKAAALIQRWYRRLVARLEMRRR", "note": "[Y15L]", "protein stability index": 3.82}
{"variant": "AFKAAALIQRWYRRMVARLEMRRR", "note": "[Y15M]", "protein stability index": 5.14}
{"variant": "AFKAAALIQRWYRRNVARLEMRRR", "note": "[Y15N]", "protein stability index": 5.1}
{"variant": "AFKAAALIQRWYRRPVARLEMRRR", "note": "[Y15P]", "protein stability index": 1.89}
{"variant": "AFKAAALIQRWYRRQVARLEMRRR", "note": "[Y15Q]", "protein stability index": 4.44}
{"variant": "AFKAAALIQRWYRRRVARLEMRRR", "note": "[Y15R]", "protein stability index": 4.11}
{"variant": "AFKAAALIQRWYRRTVARLEMRRR", "note": "[Y15T]", "protein stability index": 4.46}
{"variant": "AFKAAALIQRWYRRVVARLEMRRR", "note": "[Y15V]", "protein stability index": 4.4}
{"variant": "AFKAAALIQRWYRRWVARLEMRRR", "note": "[Y15W]", "protein stability index": 3.61}
{"variant": "AFKAAALIQRWYRRYAARLEMRRR", "note": "[V16A]", "protein stability index": 3.94}
{"variant": "AFKAAALIQRWYRRYCARLEMRRR", "note": "[V16C]", "protein stability index": 3.05}
{"variant": "AFKAAALIQRWYRRYEARLEMRRR", "note": "[V16E]", "protein stability index": 2.13}
{"variant": "AFKAAALIQRWYRRYFARLEMRRR", "note": "[V16F]", "protein stability index": 3.25}
{"variant": "AFKAAALIQRWYRRYHARLEMRRR", "note": "[V16H]", "protein stability index": 3.66}
{"variant": "AFKAAALIQRWYRRYIARLEMRRR", "note": "[V16I]", "protein stability index": 3.94}
{"variant": "AFKAAALIQRWYRRYKARLEMRRR", "note": "[V16K]", "protein stability index": 4.73}
{"variant": "AFKAAALIQRWYRRYLARLEMRRR", "note": "[V16L]", "protein stability index": 4}
{"variant": "AFKAAALIQRWYRRYMARLEMRRR", "note": "[V16M]", "protein stability index": 4.45}
{"variant": "AFKAAALIQRWYRRYNARLEMRRR", "note": "[V16N]", "protein stability index": 3.02}
{"variant": "AFKAAALIQRWYRRYPARLEMRRR", "note": "[V16P]", "protein stability index": 1.92}
{"variant": "AFKAAALIQRWYRRYRARLEMRRR", "note": "[V16R]", "protein stability index": 5.4}
{"variant": "AFKAAALIQRWYRRYSARLEMRRR", "note": "[V16S]", "protein stability index": 4.23}
{"variant": "AFKAAALIQRWYRRYTARLEMRRR", "note": "[V16T]", "protein stability index": 3.53}
{"variant": "AFKAAALIQRWYRRYWARLEMRRR", "note": "[V16W]", "protein stability index": 2.32}
{"variant": "AFKAAALIQRWYRRYYARLEMRRR", "note": "[V16Y]", "protein stability index": 2.96}
{"variant": "AFKAAALIQRWYRRYVCRLEMRRR", "note": "[A17C]", "protein stability index": 2.53}
{"variant": "AFKAAALIQRWYRRYVDRLEMRRR", "note": "[A17D]", "protein stability index": 2.33}
{"variant": "AFKAAALIQRWYRRYVERLEMRRR", "note": "[A17E]", "protein stability index": 3.13}
{"variant": "AFKAAALIQRWYRRYVFRLEMRRR", "note": "[A17F]", "protein stability index": 2.6}
{"variant": "AFKAAALIQRWYRRYVGRLEMRRR", "note": "[A17G]", "protein stability index": 3.96}
{"variant": "AFKAAALIQRWYRRYVHRLEMRRR", "note": "[A17H]", "protein stability index": 2.63}
{"variant": "AFKAAALIQRWYRRYVIRLEMRRR", "note": "[A17I]", "protein stability index": 2.96}
{"variant": "AFKAAALIQRWYRRYVKRLEMRRR", "note": "[A17K]", "protein stability index": 3.57}
{"variant": "AFKAAALIQRWYRRYVLRLEMRRR", "note": "[A17L]", "protein stability index": 3.75}
{"variant": "AFKAAALIQRWYRRYVNRLEMRRR", "note": "[A17N]", "protein stability index": 3.84}
{"variant": "AFKAAALIQRWYRRYVPRLEMRRR", "note": "[A17P]", "protein stability index": 2.09}
{"variant": "AFKAAALIQRWYRRYVQRLEMRRR", "note": "[A17Q]", "protein stability index": 3.62}
{"variant": "AFKAAALIQRWYRRYVRRLEMRRR", "note": "[A17R]", "protein stability index": 3.67}
{"variant": "AFKAAALIQRWYRRYVSRLEMRRR", "note": "[A17S]", "protein stability index": 3.2}
{"variant": "AFKAAALIQRWYRRYVTRLEMRRR", "note": "[A17T]", "protein stability index": 3.34}
{"variant": "AFKAAALIQRWYRRYVVRLEMRRR", "note": "[A17V]", "protein stability index": 3.84}
{"variant": "AFKAAALIQRWYRRYVWRLEMRRR", "note": "[A17W]", "protein stability index": 2.66}
{"variant": "AFKAAALIQRWYRRYVYRLEMRRR", "note": "[A17Y]", "protein stability index": 2.76}
{"variant": "AFKAAALIQRWYRRYVAALEMRRR", "note": "[R18A]", "protein stability index": 2.12}
{"variant": "AFKAAALIQRWYRRYVACLEMRRR", "note": "[R18C]", "protein stability index": 2.25}
{"variant": "AFKAAALIQRWYRRYVADLEMRRR", "note": "[R18D]", "protein stability index": 1.66}
{"variant": "AFKAAALIQRWYRRYVAELEMRRR", "note": "[R18E]", "protein stability index": 1.96}
{"variant": "AFKAAALIQRWYRRYVAFLEMRRR", "note": "[R18F]", "protein stability index": 3.27}
{"variant": "AFKAAALIQRWYRRYVAGLEMRRR", "note": "[R18G]", "protein stability index": 1.95}
{"variant": "AFKAAALIQRWYRRYVAILEMRRR", "note": "[R18I]", "protein stability index": 2.06}
{"variant": "AFKAAALIQRWYRRYVAKLEMRRR", "note": "[R18K]", "protein stability index": 2.54}
{"variant": "AFKAAALIQRWYRRYVAMLEMRRR", "note": "[R18M]", "protein stability index": 1.45}
{"variant": "AFKAAALIQRWYRRYVANLEMRRR", "note": "[R18N]", "protein stability index": 2.71}
{"variant": "AFKAAALIQRWYRRYVAPLEMRRR", "note": "[R18P]", "protein stability index": 2.09}
{"variant": "AFKAAALIQRWYRRYVATLEMRRR", "note": "[R18T]", "protein stability index": 2.41}
{"variant": "AFKAAALIQRWYRRYVAWLEMRRR", "note": "[R18W]", "protein stability index": 2.77}
{"variant": "AFKAAALIQRWYRRYVAYLEMRRR", "note": "[R18Y]", "protein stability index": 3.1}
{"variant": "AFKAAALIQRWYRRYVARCEMRRR", "note": "[L19C]", "protein stability index": 2.48}
{"variant": "AFKAAALIQRWYRRYVARFEMRRR", "note": "[L19F]", "protein stability index": 2.45}
{"variant": "AFKAAALIQRWYRRYVARHEMRRR", "note": "[L19H]", "protein stability index": 3.33}
{"variant": "AFKAAALIQRWYRRYVARIEMRRR", "note": "[L19I]", "protein stability index": 3.64}
{"variant": "AFKAAALIQRWYRRYVARKEMRRR", "note": "[L19K]", "protein stability index": 4.7}
{"variant": "AFKAAALIQRWYRRYVARNEMRRR", "note": "[L19N]", "protein stability index": 3.12}
{"variant": "AFKAAALIQRWYRRYVARPEMRRR", "note": "[L19P]", "protein stability index": 3.63}
{"variant": "AFKAAALIQRWYRRYVARQEMRRR", "note": "[L19Q]", "protein stability index": 3.87}
{"variant": "AFKAAALIQRWYRRYVARSEMRRR", "note": "[L19S]", "protein stability index": 4.1}
{"variant": "AFKAAALIQRWYRRYVARTEMRRR", "note": "[L19T]", "protein stability index": 4.63}
{"variant": "AFKAAALIQRWYRRYVARVEMRRR", "note": "[L19V]", "protein stability index": 3.42}
{"variant": "AFKAAALIQRWYRRYVARWEMRRR", "note": "[L19W]", "protein stability index": 2.13}
{"variant": "AFKAAALIQRWYRRYVARYEMRRR", "note": "[L19Y]", "protein stability index": 2.03}
{"variant": "AFKAAALIQRWYRRYVARLDMRRR", "note": "[E20D]", "protein stability index": 3.02}
{"variant": "AFKAAALIQRWYRRYVARLFMRRR", "note": "[E20F]", "protein stability index": 3.06}
{"variant": "AFKAAALIQRWYRRYVARLGMRRR", "note": "[E20G]", "protein stability index": 3.31}
{"variant": "AFKAAALIQRWYRRYVARLHMRRR", "note": "[E20H]", "protein stability index": 3.46}
{"variant": "AFKAAALIQRWYRRYVARLIMRRR", "note": "[E20I]", "protein stability index": 2.63}
{"variant": "AFKAAALIQRWYRRYVARLLMRRR", "note": "[E20L]", "protein stability index": 2.69}
{"variant": "AFKAAALIQRWYRRYVARLMMRRR", "note": "[E20M]", "protein stability index": 2.39}
{"variant": "AFKAAALIQRWYRRYVARLNMRRR", "note": "[E20N]", "protein stability index": 4.16}
{"variant": "AFKAAALIQRWYRRYVARLPMRRR", "note": "[E20P]", "protein stability index": 3.41}
{"variant": "AFKAAALIQRWYRRYVARLQMRRR", "note": "[E20Q]", "protein stability index": 4.2}
